We go through 94 variants from the supplement of paper PMC10567573.

The labels stand for the following.
B1: VPS39 (parent)
chain: TTLLKCYLHTNVALVAPLLRLENN
B2: RAD54B (parent)
chain: YVQEKRDGLKRRQQLEEELLRAKI
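Further: lentivirally expressed fusions sorted by FACS into six bins by GFP to DsRed ratio, PSI derived from sequencing read proportions per bin multiplied by bin number.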

In one data set the parent is B1. Nature of the data set: protein stability index of a GFP-peptide fusion (GPS, HEK-293T) (PSI 1-6); higher = more stable. The settings on record: c terminus: a fixed tail appended.
Regarding TTLLKCYLHTNVALVAPLLRLEMN [N23M], the protein stability index amounted to 2.81.

As for TTLLKCYLHTNVALVAPLLRLEIN [N23I], the protein stability index stood at 2.67.

Consider TTLLKCYLHTNVALVAPLLRLETN [N23T], for which the protein stability index is 2.32.

For TTLLKCYLHTNVALVAPLLRLEKN [N23K], the protein stability index was found to be 2.27.

Consider TTLLKCYLHTNVALVAPLLRLECN [N23C], for which the protein stability index is 2.8.

Regarding TTLLKCYLHTNVALVAPLLRLEWN [N23W], the protein stability index turned out to be 1.88.

As for TTLLKCYLHTNVALVAPLLRLERN [N23R], the protein stability index turned out to be 2.37.

Take TTLLKCYLHTNVALVAPLLRLEEN [N23E]: the protein stability index worked out at 2.49.

As to TTLLKCYLHTNVALVAPLLRLEQN [N23Q], the protein stability index came out at 3.88.

On to TTLLKCYLHTNVALVAPLLRLEFN [N23F], for which the protein stability index was found to be 2.11.

TTLLKCYLHTNVALVAPLLRLEAN [N23A]: the protein stability index was 2.22.

Turning to TTLLKCYLHTNVALVAPLLRLEHN [N23H], the protein stability index is 2.29.

TTLLKCYLHTNVALVAPLLRLEYN [N23Y]: the protein stability index amounted to 2.99.

With TTLLKCYLHTNVALVAPLLRLEVN [N23V], the protein stability index was 2.67.

With TTLLKCYLHTNVALVAPLLRLELN [N23L], the protein stability index stood at 2.85.

As to TTLLKCYLHTNVALVAPLLRLENK [N24K], the protein stability index is 2.08.

As for TTLLKCYLHTNVALVAPLLRLENL [N24L], the protein stability index was 3.19.

TTLLKCYLHTNVALVAPLLRLEND [N24D]: the protein stability index is 2.7.

For the variant TTLLKCYLHTNVALVAPLLRLENH [N24H], the protein stability index stood at 3.11.

Turning to TTLLKCYLHTNVALVAPLLRLENC [N24C], the protein stability index came to 3.2.

For TTLLKCYLHTNVALVAPLLRLENQ [N24Q], the protein stability index was found to be 3.12.

Consider TTLLKCYLHTNVALVAPLLRLENV [N24V], for which the protein stability index turned out to be 1.5.

With TTLLKCYLHTNVALVAPLLRLENI [N24I], the protein stability index worked out at 2.02.

As to TTLLKCYLHTNVALVAPLLRLWNN [E22W], the protein stability index was determined as 1.4.

For TTLLKCYLHTNVALVAPLLRLSNN [E22S], the protein stability index was 2.82.

In the case of TTLLKCYLHTNVALVAPLLRLVNN [E22V], the protein stability index came to 1.69.

The variants in another data set derive from B2. The description is as above. The settings on record: c terminus: a fixed tail appended.
As to WVQEKRDGLKRRQQLEEELLRAKI [Y1W], the protein stability index worked out at 3.92.

In the case of FVQEKRDGLKRRQQLEEELLRAKI [Y1F], the protein stability index came out at 1.79.

Consider SVQEKRDGLKRRQQLEEELLRAKI [Y1S], for which the protein stability index was determined as 4.37.

As for QVQEKRDGLKRRQQLEEELLRAKI [Y1Q], the protein stability index was 3.42.

IVQEKRDGLKRRQQLEEELLRAKI [Y1I]: the protein stability index is 3.14.

Regarding TVQEKRDGLKRRQQLEEELLRAKI [Y1T], the protein stability index worked out at 3.59.

Take PVQEKRDGLKRRQQLEEELLRAKI [Y1P]: the protein stability index was found to be 3.89.

GVQEKRDGLKRRQQLEEELLRAKI [Y1G]: the protein stability index worked out at 4.19.

Turning to DVQEKRDGLKRRQQLEEELLRAKI [Y1D], the protein stability index worked out at 4.4.

Turning to LVQEKRDGLKRRQQLEEELLRAKI [Y1L], the protein stability index was determined as 3.56.

For MVQEKRDGLKRRQQLEEELLRAKI [Y1M], the protein stability index stood at 3.95.

RVQEKRDGLKRRQQLEEELLRAKI [Y1R]: the protein stability index was determined as 3.77.

In the case of NVQEKRDGLKRRQQLEEELLRAKI [Y1N], the protein stability index came to 3.74.

For the variant HVQEKRDGLKRRQQLEEELLRAKI [Y1H], the protein stability index worked out at 3.91.

For the variant AVQEKRDGLKRRQQLEEELLRAKI [Y1A], the protein stability index is 3.7.

In the case of KVQEKRDGLKRRQQLEEELLRAKI [Y1K], the protein stability index is 3.74.

Regarding EVQEKRDGLKRRQQLEEELLRAKI [Y1E], the protein stability index came to 3.68.

For CVQEKRDGLKRRQQLEEELLRAKI [Y1C], the protein stability index was found to be 3.52.

As to VVQEKRDGLKRRQQLEEELLRAKI [Y1V], the protein stability index stood at 2.81.

Regarding YVKEKRDGLKRRQQLEEELLRAKI [Q3K], the protein stability index came to 1.81.

YVWEKRDGLKRRQQLEEELLRAKI [Q3W]: the protein stability index was 2.43.

As for YVREKRDGLKRRQQLEEELLRAKI [Q3R], the protein stability index was found to be 1.83.

With YVFEKRDGLKRRQQLEEELLRAKI [Q3F], the protein stability index came out at 1.95.

As for YVAEKRDGLKRRQQLEEELLRAKI [Q3A], the protein stability index is 1.98.

With YVIEKRDGLKRRQQLEEELLRAKI [Q3I], the protein stability index turned out to be 1.77.

As to YVMEKRDGLKRRQQLEEELLRAKI [Q3M], the protein stability index was determined as 1.64.

On to YVYEKRDGLKRRQQLEEELLRAKI [Q3Y], for which the protein stability index turned out to be 1.8.

Take YVTEKRDGLKRRQQLEEELLRAKI [Q3T]: the protein stability index came out at 2.94.

Take YVGEKRDGLKRRQQLEEELLRAKI [Q3G]: the protein stability index was 1.9.

In the case of YVVEKRDGLKRRQQLEEELLRAKI [Q3V], the protein stability index is 2.48.

YVLEKRDGLKRRQQLEEELLRAKI [Q3L]: the protein stability index was 1.75.

Take YVHEKRDGLKRRQQLEEELLRAKI [Q3H]: the protein stability index is 1.91.

Take YVSEKRDGLKRRQQLEEELLRAKI [Q3S]: the protein stability index stood at 1.75.

Regarding YVCEKRDGLKRRQQLEEELLRAKI [Q3C], the protein stability index is 2.01.

In the case of YVEEKRDGLKRRQQLEEELLRAKI [Q3E], the protein stability index worked out at 2.35.

As for YVDEKRDGLKRRQQLEEELLRAKI [Q3D], the protein stability index was 2.97.

In the case of YVPEKRDGLKRRQQLEEELLRAKI [Q3P], the protein stability index came out at 2.43.

With YVNEKRDGLKRRQQLEEELLRAKI [Q3N], the protein stability index was 2.05.

For YVQFKRDGLKRRQQLEEELLRAKI [E4F], the protein stability index was 1.89.

YVQKKRDGLKRRQQLEEELLRAKI [E4K]: the protein stability index is 2.28.

YVQDKRDGLKRRQQLEEELLRAKI [E4D]: the protein stability index turned out to be 1.68.

For YVQMKRDGLKRRQQLEEELLRAKI [E4M], the protein stability index is 1.84.

For the variant YVQHKRDGLKRRQQLEEELLRAKI [E4H], the protein stability index amounted to 1.6.

In the case of YVQAKRDGLKRRQQLEEELLRAKI [E4A], the protein stability index was determined as 1.83.

With YVQCKRDGLKRRQQLEEELLRAKI [E4C], the protein stability index was determined as 2.57.

In the case of YVQLKRDGLKRRQQLEEELLRAKI [E4L], the protein stability index is 1.67.

As for YVQNKRDGLKRRQQLEEELLRAKI [E4N], the protein stability index is 1.89.

For the variant YVQGKRDGLKRRQQLEEELLRAKI [E4G], the protein stability index is 2.13.

For the variant YVQIKRDGLKRRQQLEEELLRAKI [E4I], the protein stability index was 1.35.

Turning to YAQEKRDGLKRRQQLEEELLRAKI [V2A], the protein stability index was 3.72.

For YEQEKRDGLKRRQQLEEELLRAKI [V2E], the protein stability index came out at 4.64.

On to YCQEKRDGLKRRQQLEEELLRAKI [V2C], for which the protein stability index came to 3.08.

Consider YTQEKRDGLKRRQQLEEELLRAKI [V2T], for which the protein stability index was found to be 3.75.

With YFQEKRDGLKRRQQLEEELLRAKI [V2F], the protein stability index was 3.62.

Regarding YLQEKRDGLKRRQQLEEELLRAKI [V2L], the protein stability index was 3.41.

With YDQEKRDGLKRRQQLEEELLRAKI [V2D], the protein stability index was 4.46.

For the variant YQQEKRDGLKRRQQLEEELLRAKI [V2Q], the protein stability index worked out at 3.31.

Turning to YMQEKRDGLKRRQQLEEELLRAKI [V2M], the protein stability index was 3.65.

Take YNQEKRDGLKRRQQLEEELLRAKI [V2N]: the protein stability index worked out at 3.73.

For YKQEKRDGLKRRQQLEEELLRAKI [V2K], the protein stability index was 3.82.

As to YWQEKRDGLKRRQQLEEELLRAKI [V2W], the protein stability index was 3.35.

Turning to YHQEKRDGLKRRQQLEEELLRAKI [V2H], the protein stability index came to 2.55.

In the case of YYQEKRDGLKRRQQLEEELLRAKI [V2Y], the protein stability index amounted to 3.56.

On to YRQEKRDGLKRRQQLEEELLRAKI [V2R], for which the protein stability index was determined as 3.82.

On to YSQEKRDGLKRRQQLEEELLRAKI [V2S], for which the protein stability index came to 4.01.

Turning to YPQEKRDGLKRRQQLEEELLRAKI [V2P], the protein stability index worked out at 3.2.

As to YIQEKRDGLKRRQQLEEELLRAKI [V2I], the protein stability index was 2.84.

Consider YGQEKRDGLKRRQQLEEELLRAKI [V2G], for which the protein stability index worked out at 4.12.
